Data from paper PMC5241339 (2016).

Key:
[1] = biological target: T1, CD36 (His-tagged recombinant human protein, Sino Biological, Life technologies, 70-80 kDa) (human, UniProt P16671 30-439); assay: SPR; recombinant 2; kd2 of two-state fit
[2] = biological target: T1, CD36 (His-tagged recombinant human …); assay: SPR; recombinant 1; kd1 of two-state fit
[3] = biological target: T1, CD36 (His-tagged recombinant human …); assay: SPR; recombinant 1; kd2 of two-state fit
[4] = biological target: T1, CD36 (His-tagged recombinant human …); assay: SPR; recombinant 2; kd1 of two-state fit
[5] = biological target: T1, CD36 (His-tagged recombinant human …); assay: SPR; native 1; kd1 of two-state fit
[6] = biological target: T1, CD36 (His-tagged recombinant human …); assay: SPR; native 2; kd1 of two-state fit
[7] = biological target: T1, CD36 (His-tagged recombinant human …); assay: SPR; native 2; kd2 of two-state fit
[8] = biological target: T1, CD36 (His-tagged recombinant human …); assay: SPR; native 1; kd2 of two-state fit
[9] = biological target: T1, CD36 (His-tagged recombinant human …); assay: SPR; kd1 of two-state fit
[10] = biological target: T1, CD36 (His-tagged recombinant human …); assay: SPR; kd2 of two-state fit

T1 sequence (P16671 30-439): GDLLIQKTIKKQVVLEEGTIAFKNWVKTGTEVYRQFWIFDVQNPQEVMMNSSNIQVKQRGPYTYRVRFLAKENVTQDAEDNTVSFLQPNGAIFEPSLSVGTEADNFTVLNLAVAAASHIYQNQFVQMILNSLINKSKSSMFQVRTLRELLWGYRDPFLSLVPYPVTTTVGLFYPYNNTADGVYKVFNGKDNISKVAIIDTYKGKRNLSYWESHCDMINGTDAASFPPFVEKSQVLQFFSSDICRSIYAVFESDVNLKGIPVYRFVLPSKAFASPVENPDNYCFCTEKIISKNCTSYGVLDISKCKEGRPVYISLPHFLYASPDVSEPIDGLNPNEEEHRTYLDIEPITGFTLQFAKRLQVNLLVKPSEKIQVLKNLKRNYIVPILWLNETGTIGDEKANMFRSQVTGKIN

B1: recombinant S100A12 (rS100A12) (natural protein)
chain: GPLGSMTKLEEHLEGIVNIFHQYSVRKGHFDTLSKGELKQLLTKELANTIKNIKDKAVIDEIFQGLDANQDEQVDFQEFISLVAIALKAAHYHTHKE
[1]
  koff: 0.00068 s⁻¹
[2]
  koff: 0.0066 s⁻¹
[3]
  koff: 0.00037 s⁻¹
[4]
  koff: 0.019 s⁻¹

B2: commercially available native human S100A12 protein (nS100A12) (natural protein)
chain: MTKLEEHLEGIVNIFHQYSVRKGHFDTLSKGELKQLLTKELANTIKNIKDKAVIDEIFQGLDANQDEQVDFQEFISLVAIALKAAHYHTHKE
[5]
  koff: 0.0083 s⁻¹
[6]
  koff: 0.0092 s⁻¹
[7]
  koff: 0.00056 s⁻¹
[8]
  koff: 0.00051 s⁻¹

B3: fluorescein-labeled rS100A12 (natural protein)
chain: B1 chain
modifications: fluorescein (NHS-fluorescein, 15 times molar excess; labeled residues not stated)
[9]
  koff: 0.014 s⁻¹
[10]
  koff: 0.001 s⁻¹
